# Key:
# [1] = biological target: thrombomodulin fragment 4-6 (TM4-6); experiment: competition in a kinetic assay
# [2] = biological target: Fl-FPR-inhibited thrombin (UniProt P00734); experiment: other fluorescence titration
substance,measurement,setting,value
Ser-195 to Ala (S195A) substitution mutant of thrombin (from UniProt P00734 44-622) (enzyme),Kd,[1],9 nM
thrombomodulin fragment 4-6 (TM4-6) (domain or fragment),Kd,[2],3.5 nM
